{
  "source": "patent US10781452B2",
  "about": "“FLT3 receptor antagonists for the treatment or the prevention of pain disorders” (INSTITUT NATIONAL DE LA SANTE ET DE LA RECHERCHE MEDICALE …, priority 2010, dated 2020)",
  "molecules": {"B1": {"name": "A3 antibody: human monoclonal antibody against FLT3; VH SEQ ID NO:1, VL SEQ ID NO:2 (antibody, V domains shown)", "VH": "EVQLVESGGSLVKPGGSLRLSCAASGFTFSNSYMNWVRQAPGKGLEWISDISGSSRDIDYADFVKGRFTISRDNATNSLYLQMNSLRAEDTAVYYCVRSGNSGMDVWGRGTLVTVSS", "VL": "QSVLTQPASVSGSPGQSITISCAGTSSDVGGGYYVSWYQQHPGKAPKLMIYYDSYRPSGVSNRFSGSKSGNTASLTISGLQAEDEADYYCSSYTNNSTRVFGGGTKLEIK", "modifications": "Synthetic VH domain of A3; Synthetic VL region of A3"}},
  "target": "T1, full-length hFLT3 (Homo sapiens, UniProt P36888)",
  "T1 construct": "host or cells: HEK293T",
  "T1 sequence (P36888 27-993)": "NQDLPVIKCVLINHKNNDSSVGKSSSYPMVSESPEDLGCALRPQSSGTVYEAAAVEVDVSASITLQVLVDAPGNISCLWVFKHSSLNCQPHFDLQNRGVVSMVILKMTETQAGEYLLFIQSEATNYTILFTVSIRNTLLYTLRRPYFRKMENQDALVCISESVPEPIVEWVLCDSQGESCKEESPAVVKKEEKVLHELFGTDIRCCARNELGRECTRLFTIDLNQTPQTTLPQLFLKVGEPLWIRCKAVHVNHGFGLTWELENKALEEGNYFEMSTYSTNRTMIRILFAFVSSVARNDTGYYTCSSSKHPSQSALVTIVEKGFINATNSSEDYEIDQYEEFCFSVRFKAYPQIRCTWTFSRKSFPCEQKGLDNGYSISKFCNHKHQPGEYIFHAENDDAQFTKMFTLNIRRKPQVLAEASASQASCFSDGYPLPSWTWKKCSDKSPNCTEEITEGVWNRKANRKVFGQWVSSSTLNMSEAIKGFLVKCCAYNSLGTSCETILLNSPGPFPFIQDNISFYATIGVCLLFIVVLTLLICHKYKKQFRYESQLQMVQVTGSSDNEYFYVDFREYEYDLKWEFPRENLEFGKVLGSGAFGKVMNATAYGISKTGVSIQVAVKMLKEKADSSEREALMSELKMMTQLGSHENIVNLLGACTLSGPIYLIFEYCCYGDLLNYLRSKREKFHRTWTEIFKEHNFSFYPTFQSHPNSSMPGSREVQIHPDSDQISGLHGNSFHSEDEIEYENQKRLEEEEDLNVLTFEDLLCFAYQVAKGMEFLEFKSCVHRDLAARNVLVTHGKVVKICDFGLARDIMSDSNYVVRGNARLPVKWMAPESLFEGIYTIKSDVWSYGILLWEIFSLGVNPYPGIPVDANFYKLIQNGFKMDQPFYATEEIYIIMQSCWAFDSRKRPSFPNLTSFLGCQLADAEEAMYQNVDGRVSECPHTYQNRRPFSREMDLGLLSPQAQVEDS",
  "test": "TR-FRET displacement of Red-FL binding, HEK cells expressing full-length hFLT3",
  "details": "HEK cells expressing full-length hFLT3, 0.5 nM Red-FL",
  "protocol": "The binding of the A3 antibody to full-length hFLT3 and mFLT3 was measured by displacement of extracellular FL binding on recombinant HEK cells by using time-resolved fluorescence resonance energy transfer (TR-FRET).\nChemicals and reagents. The Tag-lite® labeling medium was from Cisbio Bioassays (Condolet, France). The Lumi4-Tb derivative of O6-Benzylguanine was synthesized by Cisbio Bioassays and is commercialized as SNAP-Lumi4-Tb (Cisbio Bioassays, Ref. SSNPTBE).\nA recombinant rh-FLT3-L was produced as previously reported (Verstraete K, et al. Efficient production of bioactive recombinant human Flt3 ligand in E. coli. Protein J, 2009 28: 57-65) and labeled with a red fluorescent probe (Red-FL). Poly-L-ornithine (MW of 30,000-70,000 daltons) was from Sigma-Aldrich. The plasmids encoding for the SNAP tagged human FLT3 (pSNAP-hFLT3) or the mouse FLT3 (pSNAP-mFLT3) used for transient transfection was obtained from Cisbio Bioassays. Monoclonal antibodies against FLT3 (8F2) and phosphotyrosine FLT3 (PY969) were purchased from Cell Signaling Technology and labeled with Lumi4-Tb and d2 respectively, by Cisbio.\nCell culture. HEK293T cells, used for binding assays, were maintained in DMEM Glutamax (Invitrogen) supplemented with antibiotics (penicillin 50 U/ml, streptomycin 50 μg/ml) and 10% heat-inactivated Fetal Calf Serum.\nTransfection procedures. […]",
  "data": [
    {"molecule": "B1", "values": [
      {"measurement": "IC50, displacement of FL binding", "result": "about 17 μg/ml"}
    ]}
  ]
}
